Data from PMC9684126.

System: Smc5/6 holo-complex, Cy3-labelled (8 subunits) (Saccharomyces cerevisiae (expressed in W303-1a))
Experiment: single-molecule optical tweezers with confocal fluorescence, lifetime
Settings: biotin at the two ends, Single-molecule buffer not given in the material (20 nM Cy3-Smc5/6 and 2 mM ATP in Fig. 6b; ~5 or ~60 pN), entrapment: 10 mM HEPES-KOH pH 7.5, 150 mM KAc

Substance | binding signal (5 nM Smc5/6 then buffer only, high force) [s] | binding signal [s]
lambda DNA tether, ss-dsDNA junctions at high force (~60 pN) | > 290 | –
lambda DNA tether, dsDNA (low force ~5 pN, or dsDNA regions at high force) | – | 76
